# Target: GST-obscurin-PH (human) (UniProt Q5VST9)
# Test: SPR; Biacore 3000; GST-obscurin-PH immobilised on a CM5 chip, HIS-PI3K-p85/SH3 as analyte at 8-250 nM, 20 ul/min, 180 s association, 180 s dissociation; 1:1 Langmuir model
# Chain of UniProt Q5VST9 (Q5VST9 5895-6004): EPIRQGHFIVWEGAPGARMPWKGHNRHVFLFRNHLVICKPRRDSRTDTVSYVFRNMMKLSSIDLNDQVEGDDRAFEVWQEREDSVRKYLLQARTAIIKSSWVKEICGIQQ
substance,measurement,value
HIS-PI3K/p85-SH3 (from UniProt O00459 4-80) (domain or fragment),Kd,0.05 µM

# From article PMC5216731
